From paper PMC10223884, “Oligosaccharide Ligands of Galectin-4 and Its Subunits: Multivalency Scores Highly” (Molecules, 2023)
Several values for one entry are separate records, joined by “and”; a condition that tells them apart may be missing. Identical values can stand only once.

Experiments:
[1] = target: T1, asialofetuin (standard glycoprotein, MW 48.4 kDa) (UniProt P12763 19-359, glycoprotein without sialic acid; carries up to nine LacNAc epitopes); assay: ELISA; direct ELISA; ASF (0.1 µM in PBS) coated on microtiter plate overnight, blocked with BSA; increasing concentrations of Gal-4 or its subunits, 2 h; detected with HRP-conjugated anti-His antibody; apparent KD from non-linear regression; conditions: both partners purified
T1 construct: Asialofetuin (desialylated fetuin), MW 48.4 kDa; Commercial asialofetuin is commonly from fetal calf serum; also called ASF
T1 sequence (looked up): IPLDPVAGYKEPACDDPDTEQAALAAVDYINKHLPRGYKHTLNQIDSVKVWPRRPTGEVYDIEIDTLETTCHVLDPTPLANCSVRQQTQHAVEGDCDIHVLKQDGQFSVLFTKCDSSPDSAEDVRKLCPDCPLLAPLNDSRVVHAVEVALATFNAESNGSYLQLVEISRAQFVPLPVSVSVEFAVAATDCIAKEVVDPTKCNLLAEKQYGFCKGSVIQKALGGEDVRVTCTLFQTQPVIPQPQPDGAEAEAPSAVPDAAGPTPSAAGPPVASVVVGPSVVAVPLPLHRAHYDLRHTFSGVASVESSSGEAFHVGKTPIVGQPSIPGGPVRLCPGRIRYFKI

[2] = target: T2, lactosyl-decorated neo-glycoprotein 12 (human serum albumin carrier) (human, UniProt P02768 25-609, 9.6 lactosyl residues (MALDI-TOF, 72,151 Da) attached by a thiourea linker and diethyl-squarate linkage; sites not stated); assay: BLI; His-tagged galectins (2 µg/mL, PBS with 0.05% Tween-20) immobilised on Ni-NTA biosensors; serially diluted neo-glycoprotein 12 in solution; 25 °C, 800 rpm; steady-state analysis; conditions: both partners purified
T2 construct: Human serum albumin, carrier of the synthetic lactosyl ligands; source: HSA coupled with squarate monoamide ester 11 (tetraborate buffer pH 9.0, 72 h), washed with water by ultracentrifugation

[3] = dynamic light scattering (DLS) of Gal-4 and its subunits in solution; type: physicochemical; conditions: 25 µM, 25 °C
Procedure: Therefore, we decided to obtain more insights into the potential aggregation behavior of the Gal-4 subunits in solution, which, theoretically, might have contributed to the multivalency effect, even with the monovalent Gal-4 subunits. The hydrodynamic radii of the whole Gal-4 and its subunits in the concentrations used in the ELISA assay (25 µM) were assessed using dynamic light scattering (DLS). This method provided information about the size distribution of the particles in the samples (Table 4). […] Therefore, the larger particles seemed to be more abundant in these distribution diagrams because light scattering is proportional to the sixth power of the scattering-matter diameter. To avoid misinterpretation, we also present the volume-weighed size distributions in Table 4, which highlight the most abundant populations of particles. These values indicate that in the cases of the whole Gal-4 and Gal-4CL, the large aggregates at 1200 nm and 400 nm, respectively, can be neglected (the volume-weighted size distributions accounted for 9 and 7 nm, respectively). The whole Gal-4 formed the most abundant particles, of 11 nm, which was similar to Gal-4CL with 8 nm particles. In the case of Gal-4NL, the solution was more polydisperse, and two significant populations were observed. The first population, of 1.3 nm, probably represented the individual Gal-4NL subunits, whereas the slightly larger population of 16 nm belonged to the aggregated species.
The hydrodynamic diameter of the Gal-4 and its subunits (25 μM) was measured by dynamic light scattering (DLS) using Zetasizer Nano S90 (Malvern Instruments Ltd., Malvern, UK) at 25 °C. The light scattered at θ = 173° from the incident light was fitted to an autocorrelation function using the method of cumulants (Malvern Instruments Ltd., Malvern, UK). The hydrodynamic diameters were determined from five independent repetitions (10–50 runs) in Malvern disposable plastic cuvettes. The particle-size distribution was determined by analyzing the multimodal peak by intensity and volume.

T2 sequence (P02768 25-609): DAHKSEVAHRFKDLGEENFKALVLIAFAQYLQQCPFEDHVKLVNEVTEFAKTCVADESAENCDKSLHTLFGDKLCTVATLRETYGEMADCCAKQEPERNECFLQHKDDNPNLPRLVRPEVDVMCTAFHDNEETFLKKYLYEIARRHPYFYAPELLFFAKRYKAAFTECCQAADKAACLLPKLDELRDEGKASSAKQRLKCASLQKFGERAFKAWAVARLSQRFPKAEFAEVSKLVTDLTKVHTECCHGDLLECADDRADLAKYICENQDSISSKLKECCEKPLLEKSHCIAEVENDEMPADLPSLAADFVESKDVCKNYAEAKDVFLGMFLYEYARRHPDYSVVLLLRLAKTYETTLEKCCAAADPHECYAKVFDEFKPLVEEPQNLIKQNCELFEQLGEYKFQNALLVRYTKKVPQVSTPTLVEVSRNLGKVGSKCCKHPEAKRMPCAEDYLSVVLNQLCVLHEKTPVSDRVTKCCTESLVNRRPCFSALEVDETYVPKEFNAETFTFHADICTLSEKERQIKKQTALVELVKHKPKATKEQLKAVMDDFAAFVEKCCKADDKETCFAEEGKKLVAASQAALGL

B1: N-terminal subunit of Gal-4 with 10 linker residues (Gal-4NL, aa 1-160) (domain or fragment, human, UniProt P56470 1-160, looked up)
chain: MAYVPAPGYQPTYNPTLPYYQPIPGGLNVGMSVYIQGVASEHMKRFFVNFVVGQDPGSDVAFHFNPRFDGWDKVVFNTLQGGKWGSEERKRSMPFKKGAAFELVFIVLAEHYKVVVNGNPFYEYGHRLPLQMVTHLQVDGDLQLQSINFIGGQPLRPQGP
notes: Galectin-4, human, N-terminal CRD (aa 1-150) with 10 further residues of the inter-domain linker at the C-terminus (aa 1-160); made by PCR from the Gal-4 plasmid, NdeI/XhoI; not shown: His6, N-terminal, kept
For B1, the Kd [1] was 38 ± 3 µM and the Kd [2] was 1 ± 0.2 µM.

B2: Gal-4NL: N-terminal subunit of Gal-4 (aa 1-160) with 10-amino-acid linker, His-tagged (protein)
chain: MAYVPAPGYQPTYNPTLPYYQPIPGGLNVGMSVYIQGVASEHMKRFFVNFVVGQDPGSDVAFHFNPRFDGWDKVVFNTLQGGKWGSEERKRSMPFKKGAAFELVFIVLAEHYKVVVNGNPFYEYGHRLPLQMVTHLQVDGDLQLQSINFIGGQPLRPQGP
modifications: left off: His6, N-terminal, kept
notes: N-terminal subunit of Gal-4 (aa 1-160) with 10-amino-acid linker, His-tagged
For B2, the “Intensity-Weighed Size Distribution Area (first population)” value [3] was 13%, the “Intensity-Weighed Size Distribution Area (second population)” value [3] was 50% and the “Intensity-Weighed Size Distribution Size (first population)” value [3] was 1.3 nm and 1.3 ± 0.3 nm. For the same molecule, the “Intensity-Weighed Size Distribution Size (second population)” value [3] was 16 nm and 16 ± 7 nm, the “PDI, polydispersity index” value [3] was 0.4 and the “Volume-Weighted Size Distribution Area” value [3] was 100%. For the same molecule, the “Volume-Weighted Size Distribution Size” value [3] was 3 ± 1 nm.

B3: Galectin-4 (whole, His6-tagged construct of human Gal-4) (natural protein, UniProt P56470 1-323, looked up)
chain: MAYVPAPGYQPTYNPTLPYYQPIPGGLNVGMSVYIQGVASEHMKRFFVNFVVGQDPGSDVAFHFNPRFDGWDKVVFNTLQGGKWGSEERKRSMPFKKGAAFELVFIVLAEHYKVVVNGNPFYEYGHRLPLQMVTHLQVDGDLQLQSINFIGGQPLRPQGPPMMPPYPGPGHCHQQLNSLPTMEGPPTFNPPVPYFGRLQGGLTARRTIIIKGYVPPTGKSFAINFKVGSSGDIALHINPRMGNGTVVRNSLLNGSWGSEEKKITHNPFGPGQFFDLSIRCGLDRFKVYANGQHLFDFAHRLSAFQRVDTLEIQGDVTLSYVQI
notes: Galectin-4, human, whole protein (two CRDs joined by the linker peptide); also called whole Gal-4; total Gal-4; not shown: His6, N-terminal, kept
Work on B3 yielded a Kd [1] of 3.3 ± 1.1 µM.
